Laboratory results from patent publication US20240226163A1 (Regeneron, published 2024).

Experiments:
[1] = molecular target: T1, HLA-A*02:01 presenting MAGE-A4 286-294 peptide (…) (human); test: flow cytometry, peptide-pulsed T2 cells;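 also: ratio of peak mean fluorescence intensity across a 12-point threefold antibody dilution series to the MFI with secondary antibody only, live-gated cells by flow cytometry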
T1 construct: On peptide-pulsed T2 cells
Procedure: (§1) Samples were run on an Intellicyt iQue flow cytometer (Intellicyt) and results were analyzed using Forecyte analysis software (Intellicyte) to calculate the mean fluorescent intensity (MFI) after gating for live cells. MFI values were plotted in Graphpad Prism using a four-parameter logistic equation over a 12-point response curve to calculate EC₅₀ values. The secondary antibody alone (i.e. no primary antibody) for each dose-response curve is also included in the analysis as a continuation of the three-fold serial dilution and is represented as the lowest dose. The signal to noise (S/N) was determined by taking the ratio of the highest MFI on the dose response curve to the MFI in the secondary alone wells.

[2] = molecular target: T2, HLA-A*02:01 presenting RABGAP1L 408-416 peptide (…) (human); test: flow cytometry, peptide-pulsed T2 cells;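 also: ratio of peak mean fluorescence intensity across a 12-point threefold antibody dilution series to the MFI with secondary antibody only, live-gated cells by flow cytometry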
T2 construct: On peptide-pulsed T2 cells; also called T2 Pulsed RABGAP1L 408-416
Procedure: as §1

[3] = molecular target: T3, HLA-A*02:01 presenting PCDHGC3 337-345 peptide (…) (human); test: flow cytometry, peptide-pulsed T2 cells;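 also: ratio of peak mean fluorescence intensity across a 12-point threefold antibody dilution series to the MFI with secondary antibody only, live-gated cells by flow cytometry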
T3 construct: On peptide-pulsed T2 cells; also called T2 Pulsed PCDHGC3 337-345
Procedure: as §1

[4] = molecular target: T4, HLA-A*02:01 presenting PSME2 145-153 peptide (…) (human); test: flow cytometry, peptide-pulsed T2 cells;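 also: ratio of peak mean fluorescence intensity across a 12-point threefold antibody dilution series to the MFI with secondary antibody only, live-gated cells by flow cytometry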
T4 construct: On peptide-pulsed T2 cells; also called T2 Pulsed PSME2 145-153
Procedure: as §1

[5] = molecular target: T5, HLA-A*02:01 presenting PLEKHH2 790-798 peptide (…) (human); test: flow cytometry, peptide-pulsed T2 cells
T5 construct: On peptide-pulsed T2 cells; also called T2 Pulsed PLEKHH2 790-798
Procedure: as §1

[6] = molecular target: T6, HLA-A*02:01 presenting FN1 2182-2190 peptide (…) (human); test: flow cytometry, peptide-pulsed T2 cells
T6 construct: On peptide-pulsed T2 cells; also called T2 Pulsed FN1 2182-2190
Procedure: as §1

[7] = molecular target: T7, HLA-A*02:01 presenting SHTN1 198-206 peptide (…) (human); test: flow cytometry, peptide-pulsed T2 cells
T7 construct: On peptide-pulsed T2 cells; also called T2 Pulsed SHTN1 198-206
Procedure: as §1

[8] = molecular target: T8, HLA-A*02:01 presenting AOX1 795-803 peptide (…) (human); test: flow cytometry, peptide-pulsed T2 cells
T8 construct: On peptide-pulsed T2 cells; also called T2 Pulsed AOX1 795-803
Procedure: as §1

[9] = molecular target: T9, HLA-A*02:01 presenting CARD8 170-178 peptide (…) (human); test: flow cytometry, peptide-pulsed T2 cells
T9 construct: On peptide-pulsed T2 cells; also called T2 Pulsed CARD8 170-178
Procedure: as §1

[10] = molecular target: T10, HLA-A*02:01 presenting CNOT1 1965-1973 peptide (…) (human); test: flow cytometry, peptide-pulsed T2 cells
T10 construct: On peptide-pulsed T2 cells; also called T2 Pulsed CNOT1 1965-1973
Procedure: as §1

[11] = molecular target: T11, HLA-A*02:01 presenting SMIM11A 4-12 peptide (…) (human); test: flow cytometry, peptide-pulsed T2 cells
T11 construct: On peptide-pulsed T2 cells; also called T2 Pulsed SMIM11A 4-12
Procedure: as §1

[12] = molecular target: T12, HLA-A*02:01 presenting MRPL37 334-342 peptide (…) (human); test: flow cytometry, peptide-pulsed T2 cells
T12 construct: On peptide-pulsed T2 cells; also called T2 Pulsed MRPL37 334-342
Procedure: as §1

[13] = molecular target: T13, HLA-A*02:01 presenting TEP1 2156-2164 peptide (…) (human); test: flow cytometry, peptide-pulsed T2 cells
T13 construct: On peptide-pulsed T2 cells; also called T2 Pulsed TEP1 2156-2164
Procedure: as §1

[14] = molecular target: T14, HLA-A*02:01 presenting HEATR5A 1925-1933 peptide (…) (human); test: flow cytometry, peptide-pulsed T2 cells
T14 construct: On peptide-pulsed T2 cells
Procedure: as §1

[15] = molecular target: T15, HLA-A*02:01 presenting NBAS 2063-2071 peptide (…) (human); test: flow cytometry, peptide-pulsed T2 cells
T15 construct: On peptide-pulsed T2 cells; also called T2 Pulsed NBAS 2063-2071
Procedure: as §1

[16] = molecular target: T1, HLA-A*02:01 presenting MAGE-A4 286-294 …; test: cell-based or functional assay
[17] = molecular target: T2, HLA-A*02:01 presenting RABGAP1L 408-416 …; test: cell-based or functional assay
[18] = molecular target: T3, HLA-A*02:01 presenting PCDHGC3 337-345 …; test: cell-based or functional assay
[19] = molecular target: T4, HLA-A*02:01 presenting PSME2 145-153 …; test: cell-based or functional assay
[20] = molecular target: T5, HLA-A*02:01 presenting PLEKHH2 790-798 …; test: cell-based or functional assay
[21] = molecular target: T6, HLA-A*02:01 presenting FN1 2182-2190 …; test: cell-based or functional assay
[22] = molecular target: T7, HLA-A*02:01 presenting SHTN1 198-206 …; test: cell-based or functional assay
[23] = molecular target: T8, HLA-A*02:01 presenting AOX1 795-803 …; test: cell-based or functional assay
[24] = molecular target: T9, HLA-A*02:01 presenting CARD8 170-178 …; test: cell-based or functional assay
[25] = molecular target: T10, HLA-A*02:01 presenting CNOT1 1965-1973 …; test: cell-based or functional assay
[26] = molecular target: T11, HLA-A*02:01 presenting SMIM11A 4-12 …; test: cell-based or functional assay
[27] = molecular target: T12, HLA-A*02:01 presenting MRPL37 334-342 …; test: cell-based or functional assay
[28] = molecular target: T13, HLA-A*02:01 presenting TEP1 2156-2164 …; test: cell-based or functional assay
[29] = molecular target: T14, HLA-A*02:01 presenting HEATR5A …; test: cell-based or functional assay
[30] = molecular target: T15, HLA-A*02:01 presenting NBAS 2063-2071 …; test: cell-based or functional assay

B1: bsAb6043 (bispecific antibody, V domains shown)
VH 1: QVQLVESGGGLVKPGGSLRLSCAASGFTFSEYYLTWIRQAPGKGLDWIAYISSSGYNIYYADSVKDRFTISRDNGKNSLFLQMNNLRAEDTAVYFCAREGVTDGMDVWGQGTTVTVSS
VH 2: EVQLVESGGGLVQPGRSLRLSCAASGFTFDDYSMHWVRQAPGKGLEWVSGISWNSGSKGYADSVKGRFTISRDNAKNSLYLQMNSLRAEDTALYYCAKYGSGYGKFYHYGLDVWGQGTTVTVSS
VL: DIQMTQSPSSLSASVGDRVTITCRASQSIDTFLNWYQQKPGKVPKLLIYAASNLESGVPSRFSGSGSGTVFTLTISRLQPEDFATYYCQQSYSIPPITFGQGTRVEIK
notes: Only variable regions are tied to the bispecific; also called MAGE-A4×CD3 (7221G) bispecific antibody
- S/N ratio [1]: 244
- S/N ratio [2]: 1
- S/N ratio [3]: 1
- S/N ratio [4]: 1
- S/N ratio [5]: 1
- S/N ratio [6]: 1
- S/N ratio [7]: 5
- S/N ratio [8]: 110
- S/N ratio [9]: 1
- S/N ratio [10]: 1
- S/N ratio [11]: 1
- S/N ratio [12]: 1
- S/N ratio [13]: 1
- S/N ratio [14]: 1
- S/N ratio [15]: 1
- EC50 (M), Jurkat/NF-κB-Luc reporter with pulsed T2 cells [16]: 3e-10 M
- Fold change, Jurkat/NF-κB-Luc reporter with pulsed T2 cells [16]: 75.3 fold
- EC50 (M), Jurkat/NF-κB-Luc reporter with pulsed T2 cells [17]: > 2e-08 M
- Fold change, Jurkat/NF-κB-Luc reporter with pulsed T2 cells [17]: 1.1 fold
- EC50 (M), Jurkat/NF-κB-Luc reporter with pulsed T2 cells [18]: > 2e-08 M
- Fold change, Jurkat/NF-κB-Luc reporter with pulsed T2 cells [18]: 1 fold
- EC50 (M), Jurkat/NF-κB-Luc reporter with pulsed T2 cells [19]: > 2e-08 M
- Fold change, Jurkat/NF-κB-Luc reporter with pulsed T2 cells [19]: 1 fold
- EC50 (M), Jurkat/NF-κB-Luc reporter with pulsed T2 cells [20]: > 2e-08 M
- Fold change, Jurkat/NF-κB-Luc reporter with pulsed T2 cells [20]: 1.9 fold
- EC50 (M), Jurkat/NF-κB-Luc reporter with pulsed T2 cells [21]: > 2e-08 M
- Fold change, Jurkat/NF-κB-Luc reporter with pulsed T2 cells [21]: 1 fold
- EC50 (M), Jurkat/NF-κB-Luc reporter with pulsed T2 cells [22]: 3.5e-09 M
- Fold change, Jurkat/NF-κB-Luc reporter with pulsed T2 cells [22]: 75.3 fold
- EC50 (M), Jurkat/NF-κB-Luc reporter with pulsed T2 cells [23]: 3.3e-10 M
- Fold change, Jurkat/NF-κB-Luc reporter with pulsed T2 cells [23]: 40.4 fold
- EC50 (M), Jurkat/NF-κB-Luc reporter with pulsed T2 cells [24]: > 2e-08 M
- Fold change, Jurkat/NF-κB-Luc reporter with pulsed T2 cells [24]: 1.8 fold
- EC50 (M), Jurkat/NF-κB-Luc reporter with pulsed T2 cells [25]: > 2e-08 M
- Fold change, Jurkat/NF-κB-Luc reporter with pulsed T2 cells [25]: 1 fold
- EC50 (M), Jurkat/NF-κB-Luc reporter with pulsed T2 cells [26]: > 2e-08 M
- Fold change, Jurkat/NF-κB-Luc reporter with pulsed T2 cells [26]: 1.2 fold
- EC50 (M), Jurkat/NF-κB-Luc reporter with pulsed T2 cells [27]: > 2e-08 M
- Fold change, Jurkat/NF-κB-Luc reporter with pulsed T2 cells [27]: 1.2 fold
- EC50 (M), Jurkat/NF-κB-Luc reporter with pulsed T2 cells [28]: > 2e-08 M
- Fold change, Jurkat/NF-κB-Luc reporter with pulsed T2 cells [28]: 1.9 fold
- EC50 (M), Jurkat/NF-κB-Luc reporter with pulsed T2 cells [29]: > 2e-08 M
- Fold change, Jurkat/NF-κB-Luc reporter with pulsed T2 cells [29]: 2.1 fold
- EC50 (M), Jurkat/NF-κB-Luc reporter with pulsed T2 cells [30]: > 2e-08 M
- Fold change, Jurkat/NF-κB-Luc reporter with pulsed T2 cells [30]: 1.6 fold
